{"source": "patent US6699832B2", "about": "(Pfizer Inc., priority 2000, dated 2004)", "origin": "cited, not measured here", "key": {"[1]": {"system": "neurotensin-1 and neurotensin-2 receptors", "conditions": "non-selective antagonist"}, "neurotensin-1 receptor": {"target": "neurotensin-1 receptor (Homo sapiens, UniProt P30989)", "sequence (P30989 whole entry)": "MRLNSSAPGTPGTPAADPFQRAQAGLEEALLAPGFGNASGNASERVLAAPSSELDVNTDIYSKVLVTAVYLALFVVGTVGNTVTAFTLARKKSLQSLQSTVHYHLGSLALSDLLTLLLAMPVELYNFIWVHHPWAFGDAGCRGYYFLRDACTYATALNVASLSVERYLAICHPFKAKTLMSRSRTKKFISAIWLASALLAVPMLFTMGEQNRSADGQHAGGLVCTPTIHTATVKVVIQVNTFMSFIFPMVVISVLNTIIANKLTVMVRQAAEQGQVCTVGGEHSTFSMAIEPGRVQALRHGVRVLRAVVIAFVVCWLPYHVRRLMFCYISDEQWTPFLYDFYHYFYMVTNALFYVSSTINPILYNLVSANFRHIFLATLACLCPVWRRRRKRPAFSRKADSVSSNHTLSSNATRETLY", "conditions": "read-out: binding affinity at the neurotensin-1 receptor"}, "neurotensin-2 receptor": {"target": "neurotensin-2 receptor (Homo sapiens, UniProt O95665)", "sequence (O95665 whole entry)": "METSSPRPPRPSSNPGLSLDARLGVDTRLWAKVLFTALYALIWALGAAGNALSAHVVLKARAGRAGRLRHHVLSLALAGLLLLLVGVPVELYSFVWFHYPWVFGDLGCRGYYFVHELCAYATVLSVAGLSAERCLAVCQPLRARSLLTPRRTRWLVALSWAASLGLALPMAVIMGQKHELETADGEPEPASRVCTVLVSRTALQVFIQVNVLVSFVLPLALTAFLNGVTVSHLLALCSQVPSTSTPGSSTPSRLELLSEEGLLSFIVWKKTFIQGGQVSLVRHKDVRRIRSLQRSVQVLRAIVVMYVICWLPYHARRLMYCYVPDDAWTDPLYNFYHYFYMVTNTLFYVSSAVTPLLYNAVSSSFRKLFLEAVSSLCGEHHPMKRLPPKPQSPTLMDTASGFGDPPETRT", "conditions": "read-out: binding affinity at the neurotensin-2 receptor"}}, "note": "pKd: −log10 of the molar value. Where no end group is shown, it is not given here."}
{"molecule": "COc1cccc(OC)c1-c1cc(C(=O)NC2(C(=O)O)C3CC4CC(C3)CC2C4)nn1-c1ccc(C(=O)N(C)CCCN(C)C)cc1C(C)C", "note": "(stereo not drawn) [SR142948A]", "values": [{"measurement": "affinity at neurotensin-1 versus neurotensin-2 receptors (selectivity)", "setting": "[1]", "result": "equal affinity"}]}
{"molecule": "Trp11 NT(1-13): NT(1-13) in which amino acid 11 is tryptophan; selective neurotensin-1 receptor agonist (QLYENKPRRPWIL; ends and bridges not checked; UniProt P30990 151-163, looked up, variant Y11W)", "values": [{"measurement": "pKd", "setting": "neurotensin-1 receptor", "result": "~9.00"}, {"measurement": "pKd", "setting": "neurotensin-2 receptor", "result": "~7.57"}]}
